B1: anti-Gc (ectodomain) 변이체 Fab 클론 Gc-3-1E12 (Fab, V domains shown)
VH: EVQLVESGGGLVQPGGSLRLSCAASGFTFSDYAMHWVRQAPGKGLEWVSGISSSGGSTFYADSVKGRFTISRDNSKNTLYLQMNSLRAEDTAVYYCAKWEWGYQERKWAFDLWGQGTLVTVSS
VL: DIQMTQSPSSLSASVGDRVTITCRASQSISNYLNWYQQKPGKAPKLLIYATSSLQSGVPSRFSGSGSGTDFTLTISSLQPEDFATYYCQQTYSFPWTFGQGTKVEIK
B2: anti-Gc (ectodomain) 변이체 Fab 클론 Gc-4-1C8 (Fab, V domains shown)
VH: EVQLVESGGGLVQPGGSLRLSCAASGFTFSDYAMNWVRQAPGKGLEWVSSISSSGSSTYYADSVKGRFTISRDNSKNTLYLQMNSLRAEDTAVYYCAKVKWRQSTSEYFDYWGQGTLVTVSS
VL: DIQMTQSPSSLSASVGDRVTITCRASQTISNYLNWYQQKPGKAPKLLIYAASTLQSGVPSRFSGSGSGTDFTLTISSLQPEDFATYYCQQSYSFPWTFGQGTKVEIK
B3: anti-Gc (ectodomain) 변이체 Fab 클론 Gc-b3-1E2 (Fab, V domains shown)
VH: EVQLVESGGGLVQPGGSLRLSCAASGFTFSNYAMNWVRQAPGKGLEWVSAISGSGSSTYYADSVKGRFTISRDNSKNTLYLQMNSLRAEDTAVYYCAKQFYVGQWLSGWFDVWGQGTLVTVSS
VL: DIQMTQSPSSLSASVGDRVTITCRASQSISNYLNWYQQKPGKAPKLLIYATSRLQSGVPSRFSGSGSGTDFTLTISSLQPEDFATYYCQQSYSFPWTFGQGTKVEIK

Biological target: SFTSV Gc 변이체 (Severe Fever with Thrombocytopenia Syndrome Virus)

Going from B1 to B2, the EC50 rises from 6 nM to 157 nM (26-fold).

With B3 the EC50 was 89 nM.

Reference: patent KR20230076376A
